Laboratory results published in the Human Domainome abundance scans (Beltran et al. 2025).
± gives the uncertainty stated by the source.

B1: REST corepressor 3, residues 87 to 134; numbered along this chain, Q9P2K3 (parent)
chain: DEWTVEDKVLFEQAFSFHGKSFHRIQQMLPDKTIASLVKYYYSWKKTR

Variants of: B1
Test: abundance fitness (aPCA) (normalised: wild type 0, dead -1); higher = more abundant; growth selection in yeast, the domain comes from the species named
Details: Homo sapiens

Variant	abundance fitness
DEWTVEDKVLFEQAFSFHGKSFHRIQQMLPDKTIASLDKYYYSWKKTR [V38D]	-0.612 ± 0.25
DEWTVEDKVLFEQAFSFHGKSFHRIQQMLPDKTIASLNKYYYSWKKTR [V38N]	-0.169 ± 0.13
DEWTVEDKVLFEQAFSFHGKSFHRIQQMLPDKTIPSLVKYYYSWKKTR [A35P]	-0.345 ± 0.17
DEWTVEDKVLFEQAFSFHGKSFHRIQQMLPDKTITSLVKYYYSWKKTR [A35T]	0.073 ± 0.1
DEWTVEDKVLFEQAFSFHGKSFHRIQQMLPDKTIRSLVKYYYSWKKTR [A35R]	-0.016 ± 0.047
DEWTVEDKVLFEQAFSFHGKSFHRIQQMLPDKTIMSLVKYYYSWKKTR [A35M]	-0.203 ± 0.11
DEWTVEDKVLFEQAFSFHGKSFHRIQQMLPDKTIQSLVKYYYSWKKTR [A35Q]	-0.258 ± 0.15
DEWTVEDKVLFEQAFSFHGKSFHRIQQMLPDKTIYSLVKYYYSWKKTR [A35Y]	-0.451 ± 0.23
DEWTVEDKVLFEQAFSFHGKSFHRIQQMLPDKTIKSLVKYYYSWKKTR [A35K]	-0.124 ± 0.14
DEWTVEDKVLFEQAFSFHGKSFHRIQQMLPDKTINSLVKYYYSWKKTR [A35N]	-0.145 ± 0.15
DEWTVEDKVLFEQAFSFHGKSFHRIQQMLPDKTILSLVKYYYSWKKTR [A35L]	-0.113 ± 0.061
DEWTVEDKVLFEQAFSFHGKSFHRIQQMLPDKTIWSLVKYYYSWKKTR [A35W]	-0.439 ± 0.12
DEWTVEDKVLFEQAFSFHGKSFHRIQQMLPDKTIVSLVKYYYSWKKTR [A35V]	-0.545 ± 0.11
DEWTVEDKVLFEQAFSFHGKSFHRIQQMLPDKTIASSVKYYYSWKKTR [L37S]	-0.773 ± 0.25
DEWTVEDKVLFEQAFSFHGKSFHRIQQMLPDKTIASRVKYYYSWKKTR [L37R]	-0.885 ± 0.22
DEWTVEDKVLFEQAFSFHGKSFHRIQQMLPDKTIASMVKYYYSWKKTR [L37M]	-0.711 ± 0.43
DEWTVEDKVLFEQAFSFHGKSFHRIQQMLPDKTIASKVKYYYSWKKTR [L37K]	-0.714 ± 0.37
DEWTVEDKVLFEQAFSFHGKSFHRIQQMLPDKTIASAVKYYYSWKKTR [L37A]	-0.673 ± 0.31
DEWTVEDKVLFEQAFSFHGKSFHRIQQMLPDKTIASVVKYYYSWKKTR [L37V]	-0.618 ± 0.23
DEWTVEDKVLFEQAFSFHGKSFHRIQQMLPDKTIASDVKYYYSWKKTR [L37D]	-0.465 ± 0.47
DEWTVEDKVLFEQAFSFHGKSFHRIQQMLPDKTIASIVKYYYSWKKTR [L37I]	-0.35 ± 0.43
DEWTVEDKVLFEQAFSFHGKSFHRIQQMLPDKTIASTVKYYYSWKKTR [L37T]	-0.542 ± 0.41
DEWTVEDKVLFEQAFSFHGKSFHRIQQMLPDKTIASEVKYYYSWKKTR [L37E]	-0.628 ± 0.36
DEWTVEDKVLFEQAFSFHGKSFHRIQQMLPDKTIASGVKYYYSWKKTR [L37G]	-0.835 ± 0.19
DEWTVEDKVLFEQAFSFHGKSFHRIQQMLPDKTIASLVGYYYSWKKTR [K39G]	-0.11 ± 0.064
DEWTVEDKVLFEQAFSFHGKSFHRIQQMLPDKTIASLVCYYYSWKKTR [K39C]	-0.546 ± 0.28
DEWTVEDKVLFEQAFSFHGKSFHRIQQMLPDKTIASLVEYYYSWKKTR [K39E]	-0.574 ± 0.2

Variant	abundance fitness
DEWTVEDKVLFEQAFSFHGKSFHRIQQMLPDKTIASLVAYYYSWKKTR [K39A]	-0.481 ± 0.18
DEWTVEDKVLFEQAFSFHGKSFHRIQQMLPDKTIASLVNYYYSWKKTR [K39N]	-0.276 ± 0.27
DEWTVEDKVLFEQAFSFHGKSFHRIQQMLPDKTIASLVVYYYSWKKTR [K39V]	-0.741 ± 0.27
DEWTVEDKVLFEQAFSFHGKSFHRIQQMLPDKTIASLVSYYYSWKKTR [K39S]	-0.168 ± 0.062
DEWTVEDKVLFEQAFSFHGKSFHRIQQMLPDKTIASLVDYYYSWKKTR [K39D]	-0.575 ± 0.45
DEWTVEDKVLFEQAFSFHGKSFHRIQQMLPDKTIASLVPYYYSWKKTR [K39P]	-0.86 ± 0.25
DEWTVEDKVLFEQAFSFHGKSFHRIQQMLPDKTIASLVWYYYSWKKTR [K39W]	-0.67 ± 0.38
DEWTVEDKVLFEQAFSFHGKSFHRIQQMLPDKTIASLVMYYYSWKKTR [K39M]	-0.748 ± 0.2
DEWTVEDKVLFEQAFSFHGKSFHRIQQMLPDKTIASLVTYYYSWKKTR [K39T]	-0.422 ± 0.23
DEWTVEDKVLFEQAFSFHGKSFHRIQQMLPDKTIASLVLYYYSWKKTR [K39L]	-0.732 ± 0.14
DEWTVEDKVLFEQAFSFHGKSFHRIQQMLPDKTIASLVYYYYSWKKTR [K39Y]	-0.193 ± 0.2
DEWTVEDKVLFEQAFSFHGKSFHRIQQMLPDKTIASLVRYYYSWKKTR [K39R]	-0.221 ± 0.097
DEWTVEDKVLFEQAFSFHGKSFHRIQQMLPDKTIASLVHYYYSWKKTR [K39H]	0.075 ± 0.45
DEWTVEDKVLFEQAFSFHGKSFHRIQQMLPDKTIASLVKYYYDWKKTR [S43D]	0.162 ± 0.28
DEWTVEDKVLFEQAFSFHGKSFHRIQQMLPDKTIASLVKYYYEWKKTR [S43E]	-0.084 ± 0.12
DEWTVEDKVLFEQAFSFHGKSFHRIQQMLPDKTIASLVKYYYAWKKTR [S43A]	-0.128 ± 0.048
DEWTVEDKVLFEQAFSFHGKSFHRIQQMLPDKTIASLVKYYYCWKKTR [S43C]	-0.027 ± 0.16
DEWTVEDKVLFEQAFSFHGKSFHRIQQMLPDKTIASLVKYKYSWKKTR [Y41K]	-0.398 ± 0.36
DEWTVEDKVLFEQAFSFHGKSFHRIQQMLPDKTIASLVKYHYSWKKTR [Y41H]	-0.52 ± 0.39
DEWTVEDKVLFEQAFSFHGKSFHRIQQMLPDKTIASLVKYGYSWKKTR [Y41G]	-0.836 ± 0.26
DEWTVEDKVLFEQAFSFHGKSFHRIQQMLPDKTIASLVKYWYSWKKTR [Y41W]	-0.574 ± 0.3
DEWTVEDKVLFEQAFSFHGKSFHRIQQMLPDKTIASLVKYVYSWKKTR [Y41V]	-0.657 ± 0.46
DEWTVEDKVLFEQAFSFHGKSFHRIQQMLPDKTIASLVKYRYSWKKTR [Y41R]	-0.654 ± 0.44
DEWTVEDKVLFEQAFSFHGKSFHRIQQMLPDKTIASLVKYFYSWKKTR [Y41F]	-0.644 ± 0.32
DEWTVEDKVLFEQAFSFHGKSFHRIQQMLPDKTIASLVKYIYSWKKTR [Y41I]	-0.599 ± 0.44
DEWTVEDKVLFEQAFSFHGKSFHRIQQMLPDKTIASLVKYEYSWKKTR [Y41E]	-0.491 ± 0.41
DEWTVEDKVLFEQAFSFHGKSFHRIQQMLPDKTIASLVKYAYSWKKTR [Y41A]	-0.817 ± 0.38
